For five substances, IC50, pseudovirus neutralization results are on record in patent US20240132578A1.

Common to all, as to experiment: cell-based or functional assay
Assay [1] deals with HIV-1 Env of isolate 93IN905 (HIV-1).
Assay [2] addresses HIV-1 Env of isolate 93MW959 (HIV-1).
Assay [3] has as its target HIV-1 Env of isolate 97ZA012 (HIV-1).
For assay [4], the target named is HIV-1 Env of isolate 98IN022 (HIV-1).
Assay [5] addresses HIV-1 Env of isolate JRCSF (HIV-1) (UniProt P20871).
The target in assay [6] is HIV-1 Env of isolate MGRM-Chronic-B-010 (HIV-1).
Assay [7] addresses HIV-1 Env of isolate MGRM-Chronic-B-011 (HIV-1).
For assay [8], the target named is HIV-1 Env of isolate MGRM-Chronic-B-012 (HIV-1).
The target of assay [9] is HIV-1 Env of isolate MGRM-Chronic-B-017 (HIV-1).
The target in assay [10] is HIV-1 Env of isolate MGRM-Chronic-B-018 (HIV-1).
Assay [11] has as its target HIV-1 Env of isolate MGRM-Chronic-B-020 (HIV-1).
Assay [12] addresses HIV-1 Env of isolate MGRM-Chronic-B-023 (HIV-1).
Assay [13] concerns the target HIV-1 Env of isolate MGRM-Chronic-B-024 (HIV-1).
The target in assay [14] is HIV-1 Env of isolate NL43 (HIV-1).
Assay [15] addresses HIV-1 Env of isolate PVO.4 (HIV-1).
The target of assay [16] is HIV-1 Env of isolate QH0692.42 (HIV-1).
The target of assay [17] is HIV-1 Env of isolate SC422661.8 (HIV-1).
The target of assay [18] is HIV-1 Env of isolate SF162 (HIV-1) (UniProt P19550).
Assay [19] has as its target HIV-1 Env of isolate THR0.18 (HIV-1).
Assay [20] concerns the target HIV-1 Env of isolate TRJ04551.58 (HIV-1).
Assay [21] concerns the target HIV-1 Env of isolate TRO.11 (HIV-1).
The target in assay [22] is HIV-1 Env of isolate VLGCB3 (HIV-1).
Assay [23] concerns the target HIV-1 Env of pseudovirus MGRM-D-020 (HIV-1).

PGT-144 (4970_K22) (antibody), sequence (VH): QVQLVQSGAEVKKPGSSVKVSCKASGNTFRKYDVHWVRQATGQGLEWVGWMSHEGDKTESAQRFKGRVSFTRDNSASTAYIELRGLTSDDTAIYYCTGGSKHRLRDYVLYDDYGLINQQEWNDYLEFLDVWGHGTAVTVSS
PGT-144 (4970_K22) (antibody), sequence (VL): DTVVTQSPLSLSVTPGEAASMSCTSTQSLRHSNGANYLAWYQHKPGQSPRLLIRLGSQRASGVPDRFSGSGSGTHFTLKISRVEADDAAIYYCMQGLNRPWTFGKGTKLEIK
PGT-143 (4980_N08) (antibody), sequence (VH): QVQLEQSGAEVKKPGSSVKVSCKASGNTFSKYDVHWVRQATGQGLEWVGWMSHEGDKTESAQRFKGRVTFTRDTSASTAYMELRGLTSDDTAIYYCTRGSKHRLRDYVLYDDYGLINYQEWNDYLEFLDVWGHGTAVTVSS
PGT-143 (4980_N08) (antibody), sequence (VL): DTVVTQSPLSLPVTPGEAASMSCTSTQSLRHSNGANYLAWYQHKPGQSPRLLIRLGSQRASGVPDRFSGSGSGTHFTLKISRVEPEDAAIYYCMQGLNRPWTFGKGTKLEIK
PGT-141 (4964_G22; 4993_K13) (antibody), sequence (VH): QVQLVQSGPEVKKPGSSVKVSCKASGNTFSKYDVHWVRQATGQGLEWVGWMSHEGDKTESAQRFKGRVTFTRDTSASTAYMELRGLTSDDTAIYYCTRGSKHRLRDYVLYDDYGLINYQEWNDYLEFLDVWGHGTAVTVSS
PGT-141 (4964_G22; 4993_K13) (antibody), sequence (VL): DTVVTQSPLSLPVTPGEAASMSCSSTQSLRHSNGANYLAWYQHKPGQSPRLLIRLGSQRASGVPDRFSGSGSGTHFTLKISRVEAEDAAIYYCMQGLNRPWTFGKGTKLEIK
PGT-145 (4995_P16) (antibody), sequence (VH): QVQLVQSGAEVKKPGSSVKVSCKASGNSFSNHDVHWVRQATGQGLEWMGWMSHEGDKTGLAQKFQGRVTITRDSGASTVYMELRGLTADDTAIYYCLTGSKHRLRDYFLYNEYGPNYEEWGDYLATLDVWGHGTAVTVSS
PGT-145 (4995_P16) (antibody), sequence (VL): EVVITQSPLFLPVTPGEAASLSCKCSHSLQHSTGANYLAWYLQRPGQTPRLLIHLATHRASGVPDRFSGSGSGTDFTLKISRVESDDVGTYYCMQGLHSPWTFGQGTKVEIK
PGT-142 (4995_E20) (antibody), sequence (VH): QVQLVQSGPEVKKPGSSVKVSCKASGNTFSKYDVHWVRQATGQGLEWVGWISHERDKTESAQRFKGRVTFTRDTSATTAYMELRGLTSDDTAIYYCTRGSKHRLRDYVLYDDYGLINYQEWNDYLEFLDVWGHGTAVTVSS

Consider PGT-141 (4964_G22; 4993_K13) (antibody), for which the IC50, pseudovirus neutralization in [1] is 0.001 µg/mL; in assay [2], 0.003 µg/mL; in [3], above 50 µg/mL; in assay [4], 0.001 µg/mL; in assay [5], 0.009 µg/mL; in assay [6] it was above 50 µg/mL. The IC50, pseudovirus neutralization in assay [7] was 2.24 µg/mL; in assay [8], above 50 µg/mL; in assay [9], 0.147 µg/mL; in [10] it was 0.572 µg/mL; in assay [11] it was above 50 µg/mL; in assay [12], 0.318 µg/mL. The IC50, pseudovirus neutralization in assay [13] was 0.011 µg/mL; in assay [14] it was above 50 µg/mL; in [15] it was 0.113 µg/mL; in assay [16] it was above 50 µg/mL; in assay [17], 1.66 µg/mL; in assay [18], above 50 µg/mL. Besides, the IC50, pseudovirus neutralization in [19] is 0.007 µg/mL; in assay [20], above 50 µg/mL; in assay [21], 0.383 µg/mL; in [22], above 50 µg/mL; in [23], above 50 µg/mL.
As to PGT-144 (4970_K22) (antibody), the IC50, pseudovirus neutralization was 0.132 µg/mL in assay [1]; 0.332 µg/mL in assay [2]; above 50 µg/mL in assay [3]; 0.171 µg/mL in assay [4]; 0.149 µg/mL in assay [5]; above 50 µg/mL in assay [6]. For the same substance, the IC50, pseudovirus neutralization in assay [7] is 5.64 µg/mL; in [8] it was above 50 µg/mL; in assay [9] it was 0.712 µg/mL; in [10], 2.4 µg/mL; in assay [11] it was above 50 µg/mL; in assay [12], above 50 µg/mL. In addition, the IC50, pseudovirus neutralization in [13] is 0.04 µg/mL; in [14], above 50 µg/mL; in [15], 0.535 µg/mL; in assay [16] it was above 50 µg/mL; in [17] it was above 50 µg/mL; in assay [18], above 50 µg/mL. For the same substance, the IC50, pseudovirus neutralization in assay [19] is 0.029 µg/mL; in assay [20], above 50 µg/mL; in [21], 4.73 µg/mL; in [22], above 50 µg/mL; in assay [23], above 50 µg/mL.
Consider PGT-142 (4995_E20) (antibody), for which the IC50, pseudovirus neutralization in assay [1] was 0.001 µg/mL; in [2], 0.001 µg/mL; in assay [3] it was above 50 µg/mL; in [4], 0.001 µg/mL; in assay [5], 0.01 µg/mL; in assay [6] it was above 50 µg/mL. The IC50, pseudovirus neutralization in [7] was 0.994 µg/mL; in assay [8], above 50 µg/mL; in assay [9] it was 0.076 µg/mL; in assay [10] it was 0.323 µg/mL; in assay [11] it was above 50 µg/mL; in assay [12], 0.486 µg/mL. Further, the IC50, pseudovirus neutralization in [13] is 0.005 µg/mL; in assay [14], above 50 µg/mL; in assay [15], 0.066 µg/mL; in assay [16], above 50 µg/mL; in assay [17], 3.15 µg/mL; in assay [18], above 50 µg/mL. Moreover, the IC50, pseudovirus neutralization was 0.012 µg/mL in assay [19]; above 50 µg/mL in assay [20]; 0.27 µg/mL in [21]; above 50 µg/mL in assay [22]; above 50 µg/mL in assay [23].
In the case of PGT-143 (4980_N08) (antibody), the IC50, pseudovirus neutralization in [1] is 0.002 µg/mL; in assay [2], 0.002 µg/mL; in [3], above 50 µg/mL; in [4], 0.001 µg/mL; in [5] it was 0.007 µg/mL; in assay [6] it was above 50 µg/mL. Moreover, the IC50, pseudovirus neutralization in assay [7] was 1.56 µg/mL; in [8], above 50 µg/mL; in [9] it was 0.145 µg/mL; in [10] it was 0.377 µg/mL; in assay [11], above 50 µg/mL; in [12], 0.236 µg/mL. Besides, the IC50, pseudovirus neutralization in assay [13] was 0.01 µg/mL; in [14], above 50 µg/mL; in assay [15] it was 0.162 µg/mL; in assay [16], above 50 µg/mL; in assay [17], 2.02 µg/mL; in assay [18], above 50 µg/mL. For the same substance, the IC50, pseudovirus neutralization is 0.016 µg/mL in [19]; above 50 µg/mL in assay [20]; 0.219 µg/mL in assay [21]; above 50 µg/mL in [22]; above 50 µg/mL in [23].
On to PGT-145 (4995_P16) (antibody), for which the IC50, pseudovirus neutralization in assay [1] is 0.002 µg/mL; in assay [2] it was 1.2 µg/mL; in assay [3], 0.915 µg/mL; in assay [4] it was 0.005 µg/mL; in assay [5] it was 0.002 µg/mL; in [6], above 50 µg/mL. Besides, the IC50, pseudovirus neutralization is 0.206 µg/mL in assay [7]; 9.66 µg/mL in [8]; 0.054 µg/mL in assay [9]; 0.013 µg/mL in [10]; above 50 µg/mL in [11]; 0.009 µg/mL in assay [12]. Further, the IC50, pseudovirus neutralization was 0.018 µg/mL in assay [13]; 0.006 µg/mL in assay [14]; 0.299 µg/mL in assay [15]; above 50 µg/mL in assay [16]; 0.079 µg/mL in assay [17]; above 50 µg/mL in assay [18]. In addition, the IC50, pseudovirus neutralization was 0.013 µg/mL in assay [19]; above 50 µg/mL in assay [20]; 0.044 µg/mL in assay [21]; above 50 µg/mL in assay [22]; 10 µg/mL in [23].
